Measurements as given in the DeepSol protein solubility set.

experiment: soluble on expression in E. coli; label from the status in PepcDB or PDB records

Row | Sequence | soluble on expression in E. coli
1 | MGHHHHHHSHMRVFIIHLSPKTCQNFSLKETHITPLLESLKLQGISYEIFDAIYSKISPTQLHPLILEHLHPSFMVEDLWAFCKNKKHPPCALKNFFYAIKHCGKRMGFGELGCYASHYSLWQKCIELNEAICILEDDIIIKDRFKESLEFCRHHINELGYIRLMHLEENVAKQKTPVKGVSQILNFKDGIGTQGYVLAPKAAQKLLKYSAKEWVMPIDCVMDRHYWHGVKNYVLEEFAIACDGMNAQNSNTEKQRPKKLPLSIRIGRSLHKSTIKFLDKVFRYSPKLIRIGKH | soluble
2 | MNDNEIGNPPIKALIVFRENGDTDNLFVPILCDAIRTTGIDVRCSTNEFWNSDTPYDIIHFQWPEEVMEGNCDDPDRICRLKECIAFFRSRGARFVYTRHNVRPHDANEVIGRAYDIIEEQSDVVVHMGRYSLDEFAAKHADSRNVIIPHPIYQYTYKEDISVERARQYLNLPQEAFIVTSFGKFRNREERRMVTGAFRKWDEAKKFLLAPRLYPFSRFNRYGSNFFKRWTSRAGYYLLIPLLNRLRRMHAGASDEPIDNCDLPYYMAASDVIFIQRKDILNSASIPLAFLFHKVVIGPNIGNIGEILQDTGNPVFHPDNQFDIIRALEAARQLSARRKGEDNYAYAIENMNSGKIGKEYAELYRNLANLSL | not soluble
3 | MSLDLFDRKAAADTLKEAPLAERMRPRTLAEYVGQEHLLGPGKLLRQLIETDQLTSLIFWGPPGSGKTTLARIIAGATKSHFIFFSAILSGIKEIREIVKEADDIRKFHGKRTILFVDEIHRFNKSQQDAFLPYVERGVFTIIGATTENPSFEVIAPLLSRCKVLVLNPLTEEEITGILRQALADKERGLGALDLAIEDDALTFMAEQAGGDARVALNTLETASRLTSNGVVSLDTAREAVQKKPLLYDKGGEEHYNVISAFIKSMRGSDPDGALYWLARMIEAGEDPIFILRRMVILASEDIGNADPRALQVAVTALQGFQLVGMPEGRIIIGQAVTYLATAPKSNASYVGIDAALAEVRKSGALPVPLHIRNAPTRLMKDLGYGTGYRYAHDYAEGYVAQDYLPDQIKGRKYYDPTGHGYEKSIKERMEWLKGKKEGHHHHHH | soluble
4 | MIITIPIKNQKDIGTPSDSVVVLGYFDGIHKGHQELFRVANKAARKDLLPIVVMTFNESPKIALEPYHPDLFLHILNPAERERKLKREGVEELYLLDFSSQFASLTAQEFFATYIKAMNAKIIVAGFDYTFGSDKKTAEDLKNYFDGEVIIVPPVEDEKGKISSTRIRQAILDGNVKEAGKLLGAPLPSRGMVVHGNARGRTIGYPTANLVLLDRTYMPADGVYVVDVEIQRQKYRAMASVGKNVTFDGEEARFEVNIFDFNQDIYGETVMVYWLDRIRDMTKFDSVDQLVDQLKADEEVTRNWS | soluble
5 | MISLEDASLTKKGIVKLSSATDSDSEALAATPKAVKTVMGEVRTKAPLDSPAFTGTPTTPTPPGDAKGLQTTNAEFVRKLIAALVGSVLEPLDTLQELADALGNDPNFATTVLNKLAGKQPLDETLTALSGKSVDGLIEYVGLRETISRAADALQKSQNGGDIPDKDLFVRRIGAARAFDGAVIIGCDDNPWTTAEFIVWLESQGAFNHPYWMCRGSWSYAYNKIITDTGCGNICLAGAVIEVMGVRGAMTIRVTTSHSVSGW | not soluble
6 | MGSDKIHHHHHHMSELLAIPLKRTLEVDFATELSKLIDTTSFQTASFFQSDILKVVDARNNAIAPDISIDGLSALKEYYVILLQLEKKFPNNQIEFTWFQTLSQKSRGTSQYSLQWEKLTIIYNIGCMYSLLALNSNNDAAESLKTSCLYFQNAAGCFKHVLDHQKNLETIPVVDDATLNALTSLMLAQAQECFWFKAVQDKHKDSLIAKLSQQIVDFYCEAINDAQRGKLIRSDWINHLKAKKAYFSAVTYYRIALSFNEKKQFGNVVKALQMGLQFINESTLSSQAKFKTVVESSLKEAQRDNEFIYLQEVPSELPSIKPALMVKPSSSATLLPSIKKDETLFKDLIPIEVMEYCTAYNERQDEYVEQRVTNPLASLNKLLKESLTTFQIPQGLTKVSEAELSHYQASLNNLLINNKNVQVQLDNIEQILNEEAFTDNQLRLKHGTLNWTLPESSTTNTAYYEKLKKLRGYLDEGSAIDKQTNELFQSIDKNLIGSEIRLPESNDPLTNKIKMIIQERNDYIDRTRRKSSEYRILPKIITSYKKNGTVDFEPIFIGHLKYFDEDLRYVNSTKEENIKLIEEVNLSKKNNPGRSGIEPKKMVRIDPRELYIEDLRYSFKLLDEVKENLSAGTAFYENLITSTSNLYNEVQEYDTARRAEKARLDKSLTFEDQ | not soluble
7 | MFKILLALCIVGCSFAAPIHGDVDDELLGLAWEAAATSVNNGNRGKFWVPIEIQSSDKNGAVTNLVVVFQESWCSVEEGNDLEDVCESMCPVYYGGAKATYRVTATESNGGSDFESVRIE | not soluble
8 | MKIAIPKERRPGEDRVAISPEVVKKLVGLGFEVIVEQGAGVGASITDDALTAAGATIASTAAQALSQADVVWKVQRPMTAEEGTDEVALIKEGAVLMCHLGALTNRPVVEALTKRKITAYAMELMPRISRANSMDILSSQSNLAGYRAVIDGAYEFARAFPMMMTAAGTVPPARVLVFGVGVAGLQAIATAKRLGAVVMATDVRAATKEQVESLGGKFITVDDEAMKTAETAGGYAKEMGEEFRKKQAEAVLKELVKTDIAITTALIPGKPAPVLITEEMVTKMKPGSVIIDLAVEAGGNCPLSEPGKIVVKHGVKIVGHTNVPSRVAADASPLFAKNLLNFLTPHVDKDTKTLVMKLEDETVSGTCVTRDGAIVHPALTGQGA | soluble
9 | MNPITNIKNQNRMNERELSLGYAGDLKKSWHQTYKDSAWIYIGGLSYALSEGDVIAVFSQYGEVMNINLIRDKDTGKSKGFAFLCYKDQRSTILAVDNFNGISLHKRMIRVDHVEEYKVPKYKEDADDETKRLWEEGCAPKPVMREAAPMEVQEQRIKKAKEVLLDIGDVDEELLKKIKKDKKKAKKEKKREKKRAKKIRKLEKKAARDPDGDWNNKAKLIDKVVAEDDLYGENKHFDFGKKKEVEEVKHNPRPDFEKADWRDIEIWKVIREREKAEKAARGETSEAWGPEDHYVSKRYQGR | not soluble
10 | MSLARVSGDAPAVSWETLDLHTAQPFGIARWTHSVYPRTFVTLTLDGRRGRGEAAPNAFYGETRGTVEAVLPLLAPALSDPWDWDGLHAALGARMPHDHPSVKCALEMAAVEWCAQAAGVPVWQLLGLSPTVLPESSYTVSLAPLPDMRRQAREAVGRGHRVLKVKLGTDQDEAILEALREEVPEVALRVDANAAWTRAQAKRMLGVLDAARVEFVEQPLAAGDLEGHAMLRGVSPVPIVADESLHHVGDVLALARAFDGVNLKLAKLGGPLQALRALRLARAHGMQVMMGCMIESSLGIAAAAHLAGLCDWADLDGALLLADDPYTGLDWTAGQLARPGGTGWGVTRRSEGHHHHHH | soluble
11 | MADEIAKAQVARPGGDTIFGKIIRKEIPAKIIFEDDQCLAFHDISPQAPTHFLVIPKKHISQISAAEDADESLLGHLMIVGKKCAADLGLKKGYRMVVNEGSDGGQSVYHVHLHVLGGRQMNWPPG | soluble
12 | MTELLVTPKSLSHMETLIDLGADAFVIGEQKFGLRLPGEFNRQQMTEAVALAHKNDKKVYAAVNGLFHNYHLDAVEDYINFLHEIRVDRIIFGDPAVVMYVKAQENPIPLHWNAETLVTNHFQCNYWGKRGASRAVLARELNLDEIINIKENSNVEIEVQVQGMTCMFQSKRMLLGNYYTFQDRQMKIERRNDEQSLLLYDEERQNNYPVYEDYNGTHIMSPNDICLIEELAPFFEAGIDSFKIDGILQTEEYINVVTEQYRQAIDLYNEDPEIYEDEKFMLMDPIEEIQPDHRPFDEGFLYKQTVY | not soluble
13 | MPATTSIPPVTAPGTGGEASSFNVDELIQYVLQGKPLSEPQVARLCQKAREVLEKEENVHTVRAPVTVCGDIHGQFHDLLELLKIGGLPPDTNYLFMGDYVDRGYYSVETVTLLLLFKIRYPERVQILRGNHESRQITQVYGFYDECVRKYGSANVWKLLTDLFDYLPLAAVVENEIFCLHGGLSPTLDSLAHIRSLERVQEVPHEGPMCDLLWSDPEDKDGWGISPRGAGFTFGADITEQFCHNNGLKTIARAHQLVAEGYSWAHSDKLVTIFSAPNYCYRCGNLAGLLELDEHMNKCFFQFDPAPRRGEAQVSKKTPDYFL | not soluble
14 | MGSDKIHHHHHHMQPSNSWVCLSALEKQVVAATASLDNRGLAYADGFFTTMGVINGQILWAEYHHQRLISHAKALQLDLDSWSLLSTLQVHAQQHRQGMLKLIITRAAQDIRGYGYTPSECGSACESWLKSLAMTVSTAEQLSLNDECSIPVQPVSTAVCLSSQIACLPPSIAGLKTLNRLDNVLASAELQGIKTRVLASNGEGDISEGLLRDMTGRWVEGTMSNVFYQLSDSRLVDSPSSEMINIPNNKSNTNYLTQGQWYTPSMAQSGVAGVMRQVIIDELSTTKYPVVVRSLQDKDLPQLQQLFFCNALRGIMPMASLTLLSGEMVGF | not soluble
15 | MGSGESTTRRVSFGLDEDDRVRILRGVKLSEDVLQRMRNTNADPRPPANNKENQGHQTRTPSTSDAQAPKTQAKTTFPDSKEELKKRYEQQQAIIQEELARIARKEREAARQDISRAVQRERAQTRQESERAKQLGKQLDKKEAELKALEAFYQEQITQLEKKNEERFRMSAEQFHAAATRSEANIKARNVEPVCLNLQAQILNCYRENREQTLQCSDLAKEYMQCINAAKKNLLVNHG | not soluble
16 | MGSSHHHHHHSSGLVPRGSHMALGSGVVPFENLQIEEGIITDAEVARFDNIRQGLDFGYGPDPLAFVRWHYDKRKNRIYAIDELVDHKVSLKRTADFVRKNKYESARIIADSSEPRSIDALKLEHGINRIEGAKKGPDSVEHGERWLDELDAIVIDPLRTPNIAREFENIDYQTDKNGDPIPRLEDKDNHTIDATRYAFERDMKKGGVSLWG | soluble
17 | SAPALLTAAQRTMLAQVGACNSHLTSDENMAINELRLHKPRLPKDTWFFTDPNKDPDDVVTYTLGKQLQAEGFVHITDVVATLGDAEVRSQRAEMAKGVFNKLGLHDVHVSRGRDYAMNSLQSKEHAKFLLEGHALRAGPGEIHRDSLQDMSRRLARAPHGVGIVVIAGMSDINALITTCPDMVRERVDDITIMGGVEPLKDADGFVQPDARAYNNATDMDAARSLYRKAQELGIPLRIVTKEAAYKTAVSPSFYEGIAGSGHPVGHYLRDVQKSALKGLWEGIQAGLLPGLDDSWFFRTFMPNAQIEAAQLDKNKESSFEDIWPKVTKLNLYDPLTLLASVPGAAKLLFKPKAIHTEGFGVVEQVGPDDVTHPEKAKLLMSALAKSALVQSTVAPD | soluble
18 | MGSDKIHHHHHHMTDQTRFFDEMTGGAPQARGPYQPYDAWFQGEDLDEIRKKSAEAEGFFRRTGITFNVYGQTEADERLIPFDVVPRIISGREWTRLTRGIEQRVRALNAFLYDIYHRQEILRAGRVPRELIDGNEAFLPQMMGVAPPGGIYTHIVGTDLVRTGEDEFFVLEDNARTPSGVSYMLENRETMLQMFPDLFSRIKVRPVQNYPANLRRSLAACAPNACTGECTVAVLTPGIHNSAYFEHAFLADQMGVELVEGHDLRVKDGRIAMRTTEGYKAIDVLYRRVDDDFLDPLNFNPDSMLGVPGIMDVYRAGGITIANAPGTGISDDKALYSYMPDIIEFYTGEKALLQNVPTHRCSEPEALKYVLDNLAELVVKEVHGSGGYGMLVGPAASKTEIEAFRKKLEANPSNYIAQPTLALSTCPILTEAGLAPRHVDLRPFVLMAPNKTTITPGGLTRVALAEGSLVVNSSQGGGTKDTWVLED | not soluble
19 | MAHHHHHHMHVSSAAYTRAYEWQRALNSCTGDFSSSLARCLPLRALCRRPNNVPRTLTHTSKHPHPLLLSHPRLPLSHAARTRAPPPSRCSRSTLMSVPYEEKAFPPL | not soluble
